Sequences and labels used below:
T1: full-length TOST-1 (TOST-1^FL) (C. elegans, UniProt Q18490 1-142)
T1 sequence (looked up): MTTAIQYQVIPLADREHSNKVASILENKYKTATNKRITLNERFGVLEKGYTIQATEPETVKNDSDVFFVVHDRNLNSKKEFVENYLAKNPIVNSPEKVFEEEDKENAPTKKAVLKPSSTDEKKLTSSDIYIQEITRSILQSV

T2: PID-1-mVenus-Strep (C. elegans, UniProt Q19541 1-169)
T2 sequence (looked up): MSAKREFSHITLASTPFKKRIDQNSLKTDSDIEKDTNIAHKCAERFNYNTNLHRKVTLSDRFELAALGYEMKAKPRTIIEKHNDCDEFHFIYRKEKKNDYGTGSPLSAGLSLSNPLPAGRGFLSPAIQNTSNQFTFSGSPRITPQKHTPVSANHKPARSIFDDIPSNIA

T3: ERH-2 W87A (C. elegans, UniProt Q20057 1-113, W87A)
T3 sequence (looked up): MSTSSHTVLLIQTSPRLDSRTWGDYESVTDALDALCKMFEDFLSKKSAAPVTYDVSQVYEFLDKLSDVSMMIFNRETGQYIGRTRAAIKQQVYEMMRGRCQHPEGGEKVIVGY

T4: ERH-2 I81A/R83A (C. elegans, UniProt Q20057 1-113, I81A | R83A)
T4 sequence (looked up): T3 sequence (looked up) with I81A, R83A, A87W

T5: TOFU-6 RRM (Caenorhabditis elegans, UniProt Q09293 1-99)
T5 sequence: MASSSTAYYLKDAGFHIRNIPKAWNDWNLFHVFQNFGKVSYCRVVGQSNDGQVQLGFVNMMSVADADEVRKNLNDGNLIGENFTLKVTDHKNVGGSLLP

T6: PID-3/ERH-2 subcomplex (C. elegans, UniProt O76616 1-307; Q20057 1-113)
T6 sequence (looked up) 1: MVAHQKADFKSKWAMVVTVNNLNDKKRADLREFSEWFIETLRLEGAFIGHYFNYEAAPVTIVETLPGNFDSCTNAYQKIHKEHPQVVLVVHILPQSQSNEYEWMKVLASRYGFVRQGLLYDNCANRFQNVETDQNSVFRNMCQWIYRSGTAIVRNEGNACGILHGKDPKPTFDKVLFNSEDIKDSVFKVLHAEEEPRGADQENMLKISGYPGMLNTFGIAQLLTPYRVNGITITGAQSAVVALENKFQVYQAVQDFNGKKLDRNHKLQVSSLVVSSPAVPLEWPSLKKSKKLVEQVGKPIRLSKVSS
T6 sequence (looked up) 2: T3 sequence (looked up) with A87W

T7: ERH-2 (Caenorhabditis elegans, UniProt Q20057)
T7 sequence (Q20057 1-113): T3 sequence (looked up) with A87W

T8: ERH-1 (Caenorhabditis elegans, UniProt Q22640)
T8 sequence (Q22640 1-103): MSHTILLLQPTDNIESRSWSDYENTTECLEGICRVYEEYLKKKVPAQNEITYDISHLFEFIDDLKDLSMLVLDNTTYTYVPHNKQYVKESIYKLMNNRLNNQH

T9: ERH-2:PID-3^pep 1:2 (Caenorhabditis elegans, UniProt O76616+Q20057)
T9 sequence (Q20057 1-113): T3 sequence (looked up) with A87W
T9 sequence (O76616 171-203 partner limits assumed): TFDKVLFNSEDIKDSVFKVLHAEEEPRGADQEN

T10: TOFU-6 (C. elegans, UniProt Q09293 1-367)
T10 sequence (looked up): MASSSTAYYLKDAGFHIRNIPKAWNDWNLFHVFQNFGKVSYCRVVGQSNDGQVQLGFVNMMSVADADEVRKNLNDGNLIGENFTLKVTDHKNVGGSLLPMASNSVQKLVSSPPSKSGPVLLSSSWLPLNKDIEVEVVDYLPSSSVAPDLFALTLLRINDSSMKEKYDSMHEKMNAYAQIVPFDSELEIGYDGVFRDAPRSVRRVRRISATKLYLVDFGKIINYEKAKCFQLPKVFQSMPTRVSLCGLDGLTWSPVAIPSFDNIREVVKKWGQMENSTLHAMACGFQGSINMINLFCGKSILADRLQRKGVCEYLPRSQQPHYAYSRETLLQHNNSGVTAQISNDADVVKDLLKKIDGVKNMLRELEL

B1: ^15N-labeled full-length ERH-2 (natural protein, C. elegans)
chain: GHMASMSTSSHTVLLIQTSPRLDSRTWGDYESVTDALDALCKMFEDFLSKKSAAPVTYDVSQVYEFLDKLSDVSMMIFNRETGQYIGRTRAWIKQQVYEMMRGRCQHPEGGEKVIVGY
B2: full-length ERH-2^FL (natural protein, C. elegans, UniProt Q20057 1-113, looked up)
chain: T3 sequence (looked up) with A87W
B3: TOST-1-mVenus-Strep (natural protein, C. elegans, UniProt Q18490 1-142, looked up)
chain: T1 sequence (looked up)
B4: TOST-1^FL: full-length TOST-1 (protein)
chain: T1 sequence (looked up)
modifications: left off: His6, N-terminal, state not stated | Trx, N-terminal, state not stated
B5: PID-3 full-length (natural protein, C. elegans, UniProt O76616 1-307, looked up)
chain: T6 sequence (looked up) 1
B6: PID-3 (I182A and V186A) (protein, UniProt O76616 1-307, looked up, variant I182A V186A)
Protein pid-3: T6 sequence (looked up) 1 with I182A, V186A
B7: PID-3(A220E) (protein, UniProt O76616 1-307, looked up, variant A220E)
Protein pid-3: T6 sequence (looked up) 1 with A220E

Positions count from the first letter of the chain named. In names and notes the source's numbering stands. Entries after “also recorded” stand apart in the source; their conditions may differ. Marks after values point to notes of the source that are not given here.

The target in series [1] is T1, full-length TOST-1 (TOST-1^FL). The series can be described thus: NMR titration.
The target of the series “PID-3 full-length” is B5. The series can be described thus: SEC.
The target of a further series is T2, PID-1-mVenus-Strep. The series can be described thus: pull-down.
Series [2] addresses T1, full-length TOST-1 (TOST-1^FL). The series can be described thus: ITC. On the technique in general: In ITC the heat of successive injections is recorded.
The target in the next series is T3, ERH-2 W87A. The series can be described thus: pull-down.
Another series has as its target T4, ERH-2 I81A/R83A. The series can be described thus: pull-down.
The next series addresses T5, TOFU-6 RRM. The series can be described thus: fluorescence anisotropy.
A further series addresses T6, PID-3/ERH-2 subcomplex. The series can be described thus: pull-down.
The target of series [3] is T7, ERH-2. The series can be described thus: NMR-monitored titration of 15N-labeled ERH-2. Conditions: TOST-1^FL added to 15N-labeled ERH-2, 25°C. Format: binding, C. elegans.
In a further series the target is T8, ERH-1. The series can be described thus: Streptavidin pull-down, TOST-1/PID-1 mVenus-Strep bait with ERH-1. Format: binding, C. elegans. Particulars: TOST-1 or PID-1 mVenus-Strep bait 10-20 μM, prey 1.2-fold molar excess, 4°C.
The target in series [4] is T7, ERH-2. The series can be described thus: Isothermal titration calorimetry, binding to ERH-2. Conditions: ITC, 20 μM ERH-2 in cell, 431 μM TOST-1^FL in syringe; N fixed at 1, not fitted. Also on record: species or system C. elegans.
Series [5] concerns ERH-2. The series is described as follows: Streptavidin pull-down, TOST-1/PID-1 mVenus-Strep bait with ERH-2. Format: binding, C. elegans. Conditions: TOST-1 or PID-1 mVenus-Strep bait 10-20 μM, prey 1.2-fold molar excess, 4°C.
Series [6] deals with ERH-2 alone, ERH-2/PID-3 subcomplex, full PETISCO. The series can be described thus: Streptavidin pull-down, TOST-1-mVenus-Strep with ERH-2, ERH-2/PID-3 or PETISCO. Format: binding, C. elegans. Conditions: TOST-1-mVenus-Strep as bait.
A further series deals with ERH-2/PID-3. The series can be described thus: SEC assay, ERH-2/TOST-1/PID-3 complex. Conditions: full-length ERH-2, TOST-1 and PID-3, 1:1 ratio. Format: binding, C. elegans.
Another series has as its target T9, ERH-2:PID-3^pep 1:2. The series is described as follows: Isothermal titration calorimetry, binding to ERH-2:PID-3^pep 1:2. Particulars: ITC, 25°C, 50 mM Tris, 250 mM NaCl, 1 mM TCEP, pH 7.50; 20 μM ERH-2:40 μM PID-3^pep in cell, 431 μM TOST-1^FL in syringe; average and SD of two or three measurements. The arrangement: species or system C. elegans.
The next series addresses T10, TOFU-6. The series can be described thus: SEC-MALS. (In general: In gel filtration, larger molecules generally elute earlier.)
The series “SEC-MALS” deals with the molecule itself. The series can be described thus: SEC-MALS.
For another series, the system named is 21U RNA. The series can be described thus: 21U RNA sequencing. Format: in vivo, C. elegans. Conditions: small RNA-seq, 20°C and 25°C, n = 3, versus wild type.
For series [7], the system named is P granules (perinuclear foci). The series is described as follows: Subcellular localization by confocal microscopy. Format: in vivo, C. elegans. Conditions: GFP-tagged PID-3, 25°C.

From article PMC8415317 (Genes & Development, 2021) come the findings set out here.

As to B1, in [1], the binding result was “binds”.

Turning to B2, the binding result with PID-3 full-length and with PID-1-mVenus-Strep was “binds” in each case. Moreover, the Kd (commonly a measure of binding affinity in units of concentration) in series [2] is 13 µM.

For the molecule TFDKVLFNSEDIKDSVFKVLHAEEEPRGADQEN (peptide, UniProt O76616 171-203, looked up) [GST-PID-3^pep], the binding result in the series with ERH-2 W87A and with ERH-2 I81A/R83A was “binds” throughout.

In the series with TOFU-6 RRM, UUUUUUUUUUUUUUUU (ssRNA) [Cy5-U16] gave a Kd of roughly 60 µM.

On to B3, for which, in the series with PID-3/ERH-2 subcomplex, the binding result is given as “binds”.

On to B4, for which, in the series with ERH-2 [3], the “amide CSPs of full-length protein vs peptide” value is “very similar amide CSPs”. For the same molecule, the “binding to ERH-1 in streptavidin pull-down” value in the series with ERH-1 is reported as “interacted with ERH-1; also recorded: more efficient bait than PID-1”. In addition, in the series with ERH-2 [4], the “N (stoichiometry)” value is 1^c. For the same molecule, the “binding to ERH-2 in streptavidin pull-down” value with ERH-2 [5] is “Both PID-1 and TOST-1 bound ERH-2; also recorded: more efficient bait than PID-1”. In [6], the “pull-down of ERH-2 alone, with PID-3 or within PETISCO” value is “pulled down ERH-2 in all conditions; also recorded: more ERH-2 is pulled down when ERH-2 is in complex with PID-3 or as part of PETISCO”. In the series on ERH-2/PID-3, the “trimeric complex formation by SEC” value is reported as “elutes at smaller elution volumes than the dimeric subcomplexes”. The molecule also showed a Kd with ERH-2:PID-3^pep 1:2 of 15 ± 2 µM.

In the case of B5, the binding result with TOFU-6 and in the series “SEC-MALS” was “binds” each time.

For the molecule B6, the “21U RNA levels” value in the series with 21U RNA is on record as “temperature-sensitive effect on overall 21U RNA levels; also recorded: affect all 21U RNA species”.

As for B7, the subcellular localization entry in series [7] is “did not form perinuclear foci”.
